US20160053277A1, “Compositions Having Dicamba Decarboxylase Activity and Methods of Use” (PIONEER HI-BRED INTERNATIONAL, INC., priority 2013, published 2016)

Columns and labels:
[1] = 14C assay with IPTG-induced recombinant E. coli cells: 14CO2 captured from [14C]-carboxyl-labeled dicamba; conditions: for Enzymatic Detection level: dicamba decarboxylation activity of the protein of the given SEQ ID NO, High / Low / No; for Dicamba Decarboxylase Activity: induced recombinant E. coli cells, [14C]-carboxyl-labeled dicamba, 14CO2 capture
[2] = Saturation mutagenesis of SEQ ID NO:109: dicamba decarboxylation activity of point mutants (carbon dioxide released); conditions: decarboxylation activity (carbon dioxide released) of point mutant compared with unmutated backbone protein; backbone SEQ ID NO: 109

B1: 39 (protein, listed as Agrobacterium fabrum)
chain: MAQGKVALEEHFAIPETLQDSAGFVPGDCWTELQHRLLDIQDTRLKLMDAHGIETMILSLNAPAVQAIPDKTKAIEIARRANDALAEECAKRPDRFLAFAALPLQDPDAATQELRRCVNDLGFVGALVNGFSQEGDGQTPLYYDLPQYRPFWGEVEKLDVPFYLHPRNPLPQDSRIYDGHPWLLGPTWAFAQETAVHALRLMASGLFDEHPRLDIILGHMGEGLPYMMWRIDHRNAWVKLPPRYPAKRRFVDYFNENFHITTSGNFRTQTLIDAILEIGADRILFSTDWPFENIDHASDWFHATSIAEADRVKIGRTNARRLFKLDGR
Enzymatic Detection level [1]: No
Dicamba Decarboxylase Activity [1]: No
Fold Activity [2]: 1.6

B2: 29 (protein, listed as Pseudovibrio sp.)
chain: MAGRRDFLRKSVAAGVGLTAAAQLSAGGAQATVPDTSNIPLITLEEHFTTPELQSKNTSGDKRLFSGGGSRPELLDVGAGRIADMDEAGIDIQVLSTVTPGASKITGAEGVEFTRKFNTWIAEEVIAAYPNRFRAFATLPLSSPEAAADELERSVREYGFVGTMTYGPIDGKFLDHADYAPLLARAEALGVPIYIHPNWPSPTAMQAYYDGLGDDLTSRILSGPGYGWHQEIAVQCLRLIVGGVFDRFPNLQIVVGHMGEGLPFYYWRVGEDLDRIAQKRLQKPVQQYFHDNLWITTSAFFRDELLNLALATMGEDRVMFSVDYPMASAKVGADWLRAADIPLATKEKIGSKNAMKLLGIDKI
Enzymatic Detection level [1]: No
Dicamba Decarboxylase Activity [1]: No
Fold Activity [2]: 1.5

B3: 61 (protein, listed as Gordonia amarae)
chain: MATGAGSGVPSPADRVIVRSPGVIDVHAHAVLPMSLGCAGAAGPEIGYREDGSPFFRVGEYVLNGVRYEGSAFMDPEVRVAAMDAAGIGLQMISPNPITYFTRLDARSATDYARAHNDAIAEAAGRHPGRLVGAAQLPMQDVPAAIAELERSVRELGLVAAYIDTDIGDRTLDAPELDDFYSAAVELDVPVFIHPSPVGQEGPPDDTRLRRFDLDLLLGFSYDETLAVAALVFGGVLERHPALDVCLSHGGGTLAFVAGRFARAVAKPRAWVPEFLVENGIESYLRRLWLDTHVHSAGSLRLLIDTVGTDRLVFGTNFAGWDADGATEVDALGDLRETTTANAAHLLRLGRA
Enzymatic Detection level [1]: No
Dicamba Decarboxylase Activity [1]: No
Fold Activity [2]: 2.4

B4: 42 (protein)
chain: MAQGKIALEEHFAIPDTLQDSAGFVPGDYWKELSARLLDIHEQRLMQMDAYGIEKMILSLNAPAVQAIPDKAKALEISRRANDFLAEQCARNPDRFLGFAALPLQDPDAATAELQRCVKTLGFVGALVNGFSQEGDGVTPLYYDLPQYRGFWAEVEKLAVPFYLHPRNPLPQDSRIYAGHPWLMGPTWAFAQETAVHALRLVGSGLFDDHPALRIILGHMGEGLPYMMWRIDNRNAWVKVAPNYPAKRRIADYFNENFYITTSGNFRTQSLVDAMLEIGADRILFSTDWPFENIDHASDWFDTATISEADRLKIGRTNAATLFNLES
modifications: Agrobacterium radiobacter
Enzymatic Detection level [1]: Low
Dicamba Decarboxylase Activity [1]: Low
Fold Activity [2]: 1.7

B5: 60 (protein, listed as Catenulispora acidiphila)
chain: MARGFVRTAVVPGFWDAGWRGAGQPGGMRVDVHAHLFPAAYLDLLDDFRQDGGVGTREVRALGGGDGERELRLRLAAMDAVGVDVQLLSTCPQGPYTGDPTAAVEAARCANVALAQTVAQYPERLRALAALPLPHILASVDELNRAMEQDGMLGAAVGTSILGRPLSHPDFEPLFAALNRRKGVLFVHPIGESAGSPLMQASKLDRVIGYAAEVSTAILQLFQAGLTVKYPDIRIIAPHMGGYLPFLIQRLDRHRDWYLPKDAPSAGQLMRGIAYDTANPLPAALRLTAEVVGPERLLLGTDYPFEQGPSLRDHIEYILAAGLPEAQAKMIVDVNAADFLDMRSGAEQPPV
Enzymatic Detection level [1]: No
Dicamba Decarboxylase Activity [1]: No
Fold Activity [2]: 1.6

B6: 3 (protein, listed as Lactobacillus plantarum)
chain: MAKLITVEEHFESAAVTAAMRQAVGNAVLPAVSPALRQYMRDNLPSPAIMQDTQHERLAFMAQYGIDMQVLSYGNSSPQNLSPEQAVPLSQLANDELAKAVVAHPDRYAGLAVLPVGDPQAAVAELNRAVTTLGLRGVLLKGNYQNKFFDEPFFLPIFEAAAALDVPVYFHPSFIPQAVTSHYFESNQWSDVVTGILSSAGYGWHMDVGIQVIRMIASGIFDKLPGLKLISGHWGELVPLFLERLDDELTTYTDLQYPFSTYYRHNVYVTPSGILSAPQLQFMLAEMGADHLMYSIDYPYKQPETSGSFLDIADLTDEQRAQIAFGTATTLFKL
Enzymatic Detection level [1]: Low
Dicamba Decarboxylase Activity [1]: Low
Fold Activity [2]: 0.9

B7: 45 (protein)
chain: MANDDLAEVIAAHPDRFAGFAALPMRDPQAAAVELQRAVGTHGFCGAMINGLIEGRFLDDPAFAPLLSTAADLGVPLYLHPSFPPPQVAEIYFGGLAPVLGDLLATAGWGWHAETALHVLRLVATGVFDRLPELWVIVGHMGEMIPFALARIDTVLSPVAQLRQPVAQYFQTNVWFTTSGYTTFPPLQCALSTVGIDRLIFSVDYPYTDNTSARALLDTAPISPVDREKLAHGTVEALLRV
modifications: Mycobacterium sp
Enzymatic Detection level [1]: No
Dicamba Decarboxylase Activity [1]: No
Fold Activity [2]: 1.7

B8: 40 (protein, listed as Rhodococcus jostii)
chain: MAQGKIALEEHFAIPETLNDSAGFVPGTYWDELQARLLDIQDVRLKLMDEHNIETMILSLNAPAVQAIPERERAIDIARRANDVLAEECAKRPDRFRGFAALPLQDPDAAAEELRRCVTELGFVGALVNGFSQSATVDGGSTPLYYDLPRYRPFWAEVERLDVPFYLHPRNPLNQDARIYEGHPWLLGPTWAFAQETAVHALRLMASGLFDEHPGLRIVLGHMGEGIPAMLWRIDHRNAWVDVPPAYPAKRRMVDYFTENFFVTTSGNFRTQTLIDLLLELGSERVMFSTDWPFENINHAAEWFDAASISEADRLKIGRTNAATLFKLDR
Enzymatic Detection level [1]: Low
Dicamba Decarboxylase Activity [1]: Low
Fold Activity [2]: 1.4

B9: 38 (protein, listed as Variovorax paradoxus)
chain: MAQGKIGLEEHFAIPQTLQDSAGFVPGVYWKELSSRLLDIHDGRLRQMDEHGMEMMILSLNAPAVQAVADPVKAYELAVRANDFLAEQVAKRPDRFQAFAALPMQDPEKATQELERCMSVLGFRGALVNGFSQVGTPDNVAYYDAPQYAPFWAAAERLDAPFYLHPRNPIASWAQIYEGHPWLLGPTWAFAQETAVHALRLMASGLFDRHPGLKIILGHLGEGLPYNMWRVDHRNAWVKAPKGYPAKRKLCEYFQENFYLTTSGNFRTQTLIDAMLEVGSDRILFSTDWPFENIDHASNWFNDTSISEADRKKIGRTNAMSLFKLA
Enzymatic Detection level [1]: Low
Dicamba Decarboxylase Activity [1]: Low
Fold Activity [2]: 1.8

B10: 59 (protein)
chain: MAPSVIDAHAHFLPGSLVTALRSRSDAPDIRTDSNGGESFGIYRTRMPYGRTYDALDVRLARMDELGVDRQILSLPGLFGIDSRPVSQALPLVRAFNDGVADLVRKHPDRFSGIAALPLADLDAAQEEYRRARGDLGLSGLILPGDTFVSVAAAERVRPLFELAATIGGLIFVHPGPLPDETGSAVDAPAPHTDSVVHRRVTVDIQNRMTEVMVTLALTDFLAPYPSVPVQVANLGGSLPFVIERMDHVYALRNPEAPPPSLSLRSLYVDAASLGPRAIALAAEVYGADRVLFGSDYPIFDDGRCLDAVRQTRLSPDARALIAGGNAARMLTQT
modifications: alpha proteobacterium
Enzymatic Detection level [1]: No
Dicamba Decarboxylase Activity [1]: No
Fold Activity [2]: 0.9

B11: 68 (protein, listed as Hoeflea phototrophica)
chain: MAIIDAHTHTLCPAVNEKVAGTIKPDSVPYQRDMSPESKEQDHTQFPELKIMFNQVERRLADMARMGIDRQVIAPAPGQQHYWAEPKLLAEISALQNDHVAELVARAPDRFAGIGTLPMTDPDAAVAEITRATRELGLRVFQIDSRVMERELSDASLDPIYAALEAAGAGLMIHPLGFSNGERLTPFFMVNSVAQPLEELLAFNHLVFGGVLDRFPKLKVYIAHGGGFAPFYIGRFDHAWKVRPEVNRLTPSAPSTYLRRIYFDTCVYRTDHIETLVRTVGADRVMLGSDYPFDMGDTDPLGLLNACQGLSDDEKATISSKVAIDFFGLET
Enzymatic Detection level [1]: No
Dicamba Decarboxylase Activity [1]: No
Fold Activity [2]: 1.3

B12: 37 (protein, listed as Burkholderia gladioli)
chain: MATFSNVKKIALEEHFAIAETIEDSAGFVPPDDWVELRGRLLDIQERRLAEMDRAGIELMVLSLNAPAVQAIRDPRQAVELARRANDYLAEQVARRPDRFRAFAALPMQAPEQAIREAERCVRELGFVGALVNGFSEAEDGAELYYDLPRYRPFWAALEALEVPFYLHPRNPLAGRAPIYDGHSWLMGPTWAFGQETAVHALRLMGSGLFDAHPRLQIILGHMGEGLPYSMWRVDNRNAWVSAKPNYPAEKPIAEYFRNNFWLTTSGNFRTQTLIDAMLEIGSDRILFSADWPFENMDHAADWFDHASISENDRIKIGRGNAERLLKLGR
Enzymatic Detection level [1]: Low
Dicamba Decarboxylase Activity [1]: Low
Fold Activity [2]: 1.6

B13: 62 (protein)
chain: MAVGGKNFRDVTDQVWCPKKRIEDMDREGVDIQVLSPIPVTFSYWAKPEEAESMARIQNDFIAETVLAYPDRFVGLGTVPMQDGETAIREMERCITELNLHGIEIGTNVNGKNLDDPSFIEFFRMAEKWQVPIFIHPWETLGRDRMPHHNFMYTVGMPSETALAAATLIWSGIMEKFPRLKVCFAHGGGSFPYILPRLDQGWKVWPHLRLTTHPPSYYAKKFYFDSLNYDPINLKYMIERFGHEKIFMGSDYPFLLREVDPGKVIDETASLSEEQKAAMLGGNAAEFLNIDIKKRGVAYAESTNT
modifications: Bacillus thuringiensis serovar pulsiensis
Enzymatic Detection level [1]: No
Dicamba Decarboxylase Activity [1]: No
Fold Activity [2]: 1

B14: 64 (protein, listed as Achromobacter piechaudii)
chain: MAIQKIDMHAHFFPPITRQEAAALDPVNAPWLRPDADGATGQIMAGEREFRPVDATLWDPALRIEQMDRHGVDVQILCATPIMFGYTYPARPAADWAARMNDLALEHCAYAPSRLKALAQVPLQDLELACQEASRARAAGHLGVQIGNHVGPRDLDDETLVQFLIHCANNDIPVLVHPWDMMTDGRMKKWMLPWLVSMPAETQLGILSLILSGAFERIPRSLKLCFAHGGGSFAYLLGRVDNAWRHRDIIRQDCPQLPSSYTDRFYTDSAVFDPRSLRLLIDVMGEDRVLLGSDYPYPLGEQEVGRLVAHAELVPEVQQKILFRNTMTFFGLQPGLQPGLQS
Enzymatic Detection level [1]: Low
Dicamba Decarboxylase Activity [1]: Low
Fold Activity [2]: 1.8
